The source of these data is PMC7402283, “Characterizing the Fused TvG6PD::6PGL Protein from the Protozoan Trichomonas vaginalis, and Effects of the NADP^+ Molecule on Enzyme Stability” (International Journal of Molecular Sciences, 2020).

Data set [1] addresses T1, TvG6PD::6PGL (Trichomonas vaginalis, UniProt A2EC78).
T1 construct: gene TVAG_414060; full-length fused protein, 716 aa, G6PD N-terminal (1-483) and 6PGL C-terminal, 81,692 Da; pET3a-HisTEV, N-terminal His6 tag removed by TEV protease; E. coli BL21(DE3) zwf-deleted; native tetramer
T1 sequence (A2EC78 1-716): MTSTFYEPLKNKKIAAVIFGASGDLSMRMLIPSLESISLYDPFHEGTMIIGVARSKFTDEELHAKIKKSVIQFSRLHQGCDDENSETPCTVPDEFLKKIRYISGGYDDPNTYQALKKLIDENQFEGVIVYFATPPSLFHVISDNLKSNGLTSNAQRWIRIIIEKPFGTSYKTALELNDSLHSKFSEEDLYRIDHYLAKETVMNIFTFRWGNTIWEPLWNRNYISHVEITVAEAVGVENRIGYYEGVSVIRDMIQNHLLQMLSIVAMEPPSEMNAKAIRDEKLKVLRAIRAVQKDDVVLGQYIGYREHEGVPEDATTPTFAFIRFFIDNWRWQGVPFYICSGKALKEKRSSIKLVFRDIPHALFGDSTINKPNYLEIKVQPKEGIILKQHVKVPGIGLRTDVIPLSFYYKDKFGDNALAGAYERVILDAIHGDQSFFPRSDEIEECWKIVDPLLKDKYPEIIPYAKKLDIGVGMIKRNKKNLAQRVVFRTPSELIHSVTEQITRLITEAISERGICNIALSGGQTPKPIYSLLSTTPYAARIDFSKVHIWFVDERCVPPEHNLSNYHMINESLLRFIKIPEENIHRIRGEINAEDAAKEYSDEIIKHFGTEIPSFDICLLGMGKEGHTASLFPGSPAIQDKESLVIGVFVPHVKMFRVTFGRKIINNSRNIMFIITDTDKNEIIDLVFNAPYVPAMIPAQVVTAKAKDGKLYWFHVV
Description: intrinsic tryptophan fluorescence quenching titration, excitation […] nm. The format is binding.

For data set [2], the target named is fused glucose-6-phosphate dehydrogenase-phosphogluconolactonase protein from Trichomonas vaginalis (TvG6PD::6PGL) (Trichomonas vaginalis). In words: SEC; Sephacryl 400 (16/60) gel filtration column, 50 mM phosphate buffer pH 7.35, flow 0.3 mL/min, calibrated with Bio-Rad gel filtration standards; single peak at 59.9 mL; no monomer, dimer or larger aggregates seen.

Substrate in data set [3]: O=P(O)(O)OC[C@H]1OC(O)[C@H](O)[C@@H](O)[C@@H]1O
Description: purified protein. Particulars: NADP+ fixed at 150 uM, pH 8.0, apparent Km. The format is biochemical, Trichomonas vaginalis.

Substrate in data set [4]: NC(=O)c1ccc[n+]([C@@H]2O[C@H](COP(=O)(O)OP(=O)(O)OC[C@H]3O[C@@H](n4cnc5c(N)ncnc54)[C@H](OP(=O)(O)O)[C@@H]3O)[C@@H](O)[C@H]2O)c1
In words: purified protein. The format is biochemical, Trichomonas vaginalis. As to conditions: G6P fixed at 1 mM, pH 8.0, apparent Km, catalytic site.

`NC(=O)c1ccc[n+]([C@@H]2O[C@H](COP(=O)(O)OP(=O)(O)OC[C@H]3O[C@@H](n4cnc5c(N)ncnc54)[C@H](OP(=O)(O)O)[C@@H]3O)[C@@H](O)[C@H]2O)c1` [NADP^+] displayed a Kd in data set [1] of 31 nM.

As for “fused glucose-6-phosphate dehydrogenase-phosphogluconolactonase protein from Trichomonas vaginalis (TvG6PD::6PGL) (enzyme)”, the stoichiometry N in data set [2] was determined as 4.

B1: TvG6PD::6PGL (Trichomonas vaginalis G3) (protein)
chain: MTSTFYEPLKNKKIAAVIFGASGDLSMRMLIPSLESISLYDPFHEGTMIIGVARSKFTDEELHAKIKKSVIQFSRLHQGCDDENSETPCTVPDEFLKKIRYISGGYDDPNTYQALKKLIDENQFEGVIVYFATPPSLFHVISDNLKSNGLTSNAQRWIRIIIEKPFGTSYKTALELNDSLHSKFSEEDLYRIDHYLAKETVMNIFTFRWGNTIWEPLWNRNYISHVEITVAEAVGVENRIGYYEGVSVIRDMIQNHLLQMLSIVAMEPPSEMNAKAIRDEKLKVLRAIRAVQKDDVVLGQYIGYREHEGVPEDATTPTFAFIRFFIDNWRWQGVPFYICSGKALKEKRSSIKLVFRDIPHALFGDSTINKPNYLEIKVQPKEGIILKQHVKVPGIGLRTDVIPLSFYYKDKFGDNALAGAYERVILDAIHGDQSFFPRSDEIEECWKIVDPLLKDKYPEIIPYAKKLDIGVGMIKRNKKNLAQRVVFRTPSELIHSVTEQITRLITEAISERGICNIALSGGQTPKPIYSLLSTTPYAARIDFSKVHIWFVDERCVPPEHNLSNYHMINESLLRFIKIPEENIHRIRGEINAEDAAKEYSDEIIKHFGTEIPSFDICLLGMGKEGHTASLFPGSPAIQDKESLVIGVFVPHVKMFRVTFGRKIINNSRNIMFIITDTDKNEIIDLVFNAPYVPAMIPAQVVTAKAKDGKLYWFHVV
notes: full-length fused protein, 716 aa, G6PD N-terminal (1-483) and 6PGL C-terminal, 81,692 Da; pET3a-HisTEV, N-terminal His6 tag removed by TEV protease; E. coli BL21(DE3) zwf-deleted; native tetramer
For B1, the Michaelis constant (Km) is reported as 0.21 mM in data set [3] and 0.027 mM in data set [4]. Further, the kcat in data set [3] and in data set [4] was 147 s⁻¹ each time.

What is called Kd is the equilibrium constant for the complex coming apart. The low end stands for tighter binding, the high end for weaker binding. The term stoichiometry N denotes a count of units in the complex or per binding partner. As a reminder, the Km is the substrate concentration at which the rate is half of its maximum. As a reminder, the kcat is the number of substrate molecules converted per active site and unit of time at saturation.
